Measured values published in article PMC10659161, “Cryo-electron tomography reveals the binding and release states of the major adhesion complex from Mycoplasma genitalium” (PLOS Pathogens, 2023).

Target: T1, P140 (Mycoplasma genitalium, UniProt P20796 59-1444)
T1 construct: P140 of the nap particle adhesion complex, Mycoplasma genitalium G37; endogenous and not truncated, with stalk, transmembrane helix and intracellular region (residues up to 1444 are spoken of); The same endogenous protein was also studied in the nap particle purified from M. genitalium; that purification is described in an earlier publication of the authors; also called P140 adhesin of the nap …
T1 sequence: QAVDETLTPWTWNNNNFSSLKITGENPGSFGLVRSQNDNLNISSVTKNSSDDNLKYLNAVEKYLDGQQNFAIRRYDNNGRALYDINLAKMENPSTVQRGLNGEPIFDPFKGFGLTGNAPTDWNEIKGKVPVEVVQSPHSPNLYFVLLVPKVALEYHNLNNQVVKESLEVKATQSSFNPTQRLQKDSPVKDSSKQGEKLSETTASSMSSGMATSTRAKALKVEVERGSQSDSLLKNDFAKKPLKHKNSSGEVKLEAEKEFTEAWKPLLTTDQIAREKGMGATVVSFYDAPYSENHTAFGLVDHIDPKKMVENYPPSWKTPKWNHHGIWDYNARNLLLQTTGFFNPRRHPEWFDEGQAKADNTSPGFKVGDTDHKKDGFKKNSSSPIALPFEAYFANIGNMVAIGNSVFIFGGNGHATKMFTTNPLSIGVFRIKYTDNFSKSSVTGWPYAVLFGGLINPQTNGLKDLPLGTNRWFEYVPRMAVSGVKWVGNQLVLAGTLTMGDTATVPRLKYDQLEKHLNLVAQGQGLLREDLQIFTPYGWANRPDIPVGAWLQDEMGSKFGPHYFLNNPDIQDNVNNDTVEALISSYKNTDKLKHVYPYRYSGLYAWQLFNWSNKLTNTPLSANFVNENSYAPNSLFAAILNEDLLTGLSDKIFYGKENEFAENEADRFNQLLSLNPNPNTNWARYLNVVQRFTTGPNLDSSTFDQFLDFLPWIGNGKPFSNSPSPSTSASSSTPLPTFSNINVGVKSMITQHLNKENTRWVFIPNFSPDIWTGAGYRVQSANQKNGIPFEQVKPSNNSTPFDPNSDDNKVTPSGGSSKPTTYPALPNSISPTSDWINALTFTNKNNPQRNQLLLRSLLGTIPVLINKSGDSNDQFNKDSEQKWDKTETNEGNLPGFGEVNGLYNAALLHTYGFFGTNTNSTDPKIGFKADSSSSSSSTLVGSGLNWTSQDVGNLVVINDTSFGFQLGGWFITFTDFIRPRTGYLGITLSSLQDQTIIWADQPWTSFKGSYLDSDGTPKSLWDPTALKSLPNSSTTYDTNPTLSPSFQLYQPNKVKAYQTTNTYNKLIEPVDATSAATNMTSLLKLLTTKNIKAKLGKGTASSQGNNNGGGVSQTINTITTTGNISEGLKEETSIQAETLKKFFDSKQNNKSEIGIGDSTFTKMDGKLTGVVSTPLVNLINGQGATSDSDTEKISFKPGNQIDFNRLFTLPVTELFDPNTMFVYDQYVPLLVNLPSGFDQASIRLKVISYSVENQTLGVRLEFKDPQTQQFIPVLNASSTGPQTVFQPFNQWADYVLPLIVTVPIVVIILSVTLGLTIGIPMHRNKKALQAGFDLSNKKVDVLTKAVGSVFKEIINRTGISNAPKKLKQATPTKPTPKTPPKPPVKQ
Assay: cryo-EM structure; single-particle cryo-EM of the isolated nap particle purified from M. genitalium, with and without soaking in 10 mM 6'-SL (75 mM Tris-HCl pH 7.4, 400 mM NaCl, 5% glycerol, 0.5% octylglucoside); heterodimer classes at 3.3 and 3.7 Å, tetramer classes at 8.3, 7.3 and 7.7 Å
Conditions: both partners purified

B1: P110 (natural protein)
chain: NTFLVKEDSKNVTAYTPFATPITDSKSDLVSLAQLDSSYQIADQTIHNTNLFVLFKSRDVKVKYESSGSNNISFDSTSQGEKPSYVVEFTNSTNIGIKWTMVKKYQLDVPNVSSDMNQVLKNLILEQPLTKYTLNSSLAKEKGKTQREVHLGSGQANQWTSQRNQHDLNNNPSPNASTGFKLTTGNAYRKLSESWPIYEPIDGTKQGKGKDSSGWSSTEENEAKNDAPSVSGGGSSSGTFNKYLNTKQALESIGILFDDQTPRNVITQLYYASTSKLAVTNNHIVVMGNSFLPSMWYWVVERSAQENASNKPTWFANTNLDWGEDKQKQFVENQLGYKETTSTNSHNFHSKSFTQPAYLISGIDSVNDQIIFSGFKAGSVGYDSSSSSSSSSSSSTKDQALAWSTTTSLDSKTGYKDLVTNDTGLNGPINGSFSIQDTFSFVVPYSGNHTNNGTTGPIKTAYPVKKDQKSTVKINSLINATPLNSYGDEGIGVFDALGLNYNFKSNQERLPSRTDQIFVYGIVSPNELRSAKSSADSTGSDTKVNWSNTQSRYLPVPYNYSEGIIDADGFKRPENRGASVTTFSGLKSIAPDGFANSIANFSVGLKAGIDPNPVMSGKKANYGAVVLTRGGVVRLNFNPGNDSLLSTTDNNIAPISFSFTPFTAAESAVDLTTFKEVTYNQESGLWSYIFDSSLKPSHDGKQTPVTDNMGFSVITVSRTGIELNQDQATTTLDVAPSALAVQSGIQSTTQTLTGVLPLSEEFSAVIAKDSDQNKIDIYKNNNGLFEIDTQLSNSVATNNGGLAPSYTENRVDAWGKVEFADNSVLQARNLVDKTVDEIINTPEILNSFFRFTPAFEDQKATLVATKQSDTSLSVSPRIQFLDGNFYDLNSTIAGVPLNIGFPSRVFAGFAALPAWVIPVSVGSSVGILFILLVLGLGIGIPMYRVRKLQDASFVNVFKKVDTLTTAVGSVYKKIITQTGVVKKAPSALKAANPSVKKPAAFLKPPVQPPSKPEGEQKAVEVKSEETKS
notes: P110 of the nap particle adhesion complex, Mycoplasma genitalium G37; endogenous and not truncated, with stalk, transmembrane helix and intracellular region (residues up to 1053 are spoken of); The same endogenous protein was also studied in the nap particle purified from M. genitalium; that purification is described in an earlier publication of the authors; also called P110 adhesin of the nap …
B1: binds.
